Target: T1, HasR TonB box dodecamer peptide (Serratia marcescens)
T1 chain: ALDSLTVLGAGG
Assay: ITC

B1: TonBCTD CTD (protein)
chain: not shown
- Kd: ~50 µM

Reference: article PMC3602595 (2013)
